According to publication PMC5386136:

Experiments:
[1] = target: SHANK3 SPN-ARR (residues 1-348) (rat); test: ITC
[2] = target: SHANK3 SPN(R12C)-ARR mutant (rat); test: ITC

Kd [1]: 0.2 µM
Kd [2]: 2.2 µM
Substance: Rap1b (residues 1-166) (from UniProt P61224 1-166) (natural protein)
